A word on the IC50: it is the concentration needed to halve the response being measured.

Results on twelve molecules are retold here after patent publication US6413935.

Non-standard residues stand in square brackets, D forms with d. No end group written: not given here. Cha = N[C@@H](CC1CCCCC1)C(=O)O; 14 = not defined here

In assay [1] the target is T1, HLA-DR2w2b (DRB1*1501), purified from 3107 cells (human).
T1 chain 1: not shown
T1 chain 2: not shown
Nature of the assay: 125I-peptide inhibition, purified class II.

The target in assay [2] is T2, mouse class II IA^b, purified from DB27.4 cells (mouse), P14434.
T2 chain 1: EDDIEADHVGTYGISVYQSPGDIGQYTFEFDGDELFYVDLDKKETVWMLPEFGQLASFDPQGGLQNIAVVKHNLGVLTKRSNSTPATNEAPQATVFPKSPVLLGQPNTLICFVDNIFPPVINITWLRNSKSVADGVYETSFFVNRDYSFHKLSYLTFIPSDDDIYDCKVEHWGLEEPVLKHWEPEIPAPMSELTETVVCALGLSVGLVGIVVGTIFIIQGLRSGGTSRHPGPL
T2 chain 2: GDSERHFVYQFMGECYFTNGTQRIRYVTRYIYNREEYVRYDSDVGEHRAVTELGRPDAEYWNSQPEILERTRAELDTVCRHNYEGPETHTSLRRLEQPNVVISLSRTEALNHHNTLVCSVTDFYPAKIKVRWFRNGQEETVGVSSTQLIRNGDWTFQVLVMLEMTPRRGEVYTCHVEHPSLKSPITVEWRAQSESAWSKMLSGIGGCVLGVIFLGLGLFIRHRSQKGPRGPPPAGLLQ
Briefly: 125I-peptide inhibition, purified class II.

In assay [3] the target is T3, HLA-DR52a (DRB3*0101), purified from MAT cells or TR81.19 transfected fibroblasts (human).
T3 chain 1: not shown
T3 chain 2: not shown
Briefly: 125I-peptide inhibition, purified class II.

Assay [4] addresses T4, HLA-DRw53 (DRB4*0101), purified from L257.6 transfected fibroblasts (human).
T4 chain 1: not shown
T4 chain 2: not shown
Nature of the assay: 125I-peptide inhibition, purified class II.

Assay [5] has as its target mouse class II IE^d, purified from A20 cells (mouse). Nature of the assay: 125I-peptide inhibition, purified class II.
The target of assay [6] is HLA-DR1 (DRB1*0101), purified from LG2 cells (human). Nature of the assay: 125I-peptide inhibition, purified class II.
In assay [7] the target is T5, HLA-DR3 (DRB1*0301), purified from MAT cells (human).
T5 chain 1: not shown
T5 chain 2: not shown
Briefly: 125I-peptide inhibition, purified class II.

Assay [8] concerns the target mouse class II IE^k, purified from CH12 cells (mouse). Briefly: 125I-peptide inhibition, purified class II.
The target of assay [9] is T6, mouse class II IA^d, purified from A20 cells (mouse), P04228.
T6 chain 1: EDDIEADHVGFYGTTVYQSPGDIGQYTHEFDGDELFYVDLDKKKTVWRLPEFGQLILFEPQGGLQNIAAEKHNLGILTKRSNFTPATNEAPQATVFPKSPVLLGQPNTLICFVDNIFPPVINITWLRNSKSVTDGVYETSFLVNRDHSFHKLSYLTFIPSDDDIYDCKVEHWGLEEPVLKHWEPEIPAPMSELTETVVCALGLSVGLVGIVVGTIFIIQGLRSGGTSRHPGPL
T6 chain 2: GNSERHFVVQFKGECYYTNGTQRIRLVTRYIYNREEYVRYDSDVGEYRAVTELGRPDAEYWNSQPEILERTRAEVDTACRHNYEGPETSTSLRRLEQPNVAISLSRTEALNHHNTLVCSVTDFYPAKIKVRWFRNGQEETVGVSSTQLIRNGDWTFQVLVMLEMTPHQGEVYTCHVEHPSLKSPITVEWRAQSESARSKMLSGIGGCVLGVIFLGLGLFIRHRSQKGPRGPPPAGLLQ
Nature of the assay: 125I-peptide inhibition, purified class II.

In assay [10] the target is T7, HLA-DR2w2a (DRB5*0101), purified from L416.3 transfected fibroblasts (human).
T7 chain 1: not shown
T7 chain 2: not shown
Nature of the assay: 125I-peptide inhibition, purified class II.

Assay [11] deals with T8, HLA-DR4w4 (DRB1*0401), purified from PREISS cells (human).
T8 chain 1: not shown
T8 chain 2: not shown
Briefly: 125I-peptide inhibition, purified class II.

Assay [12] concerns the target T9, HLA-DR7 (DRB1*0701), purified from PITOUT cells (human).
T9 chain 1: not shown
T9 chain 2: not shown
Nature of the assay: 125I-peptide inhibition, purified class II.

Assay [13] has as its target T10, HLA-DR5 (DRB1*11011), purified from cell line SWEIG (human).
T10 chain 1: not shown
T10 chain 2: not shown
Nature of the assay: competition vs 125I-peptide, purified class II MHC.

In assay [14] the target is T11, HLA-DR7 (DRB1*0701), purified from cell line PITOUT (human).
T11 chain 1: not shown
T11 chain 2: not shown
Nature of the assay: competition vs 125I-peptide, purified class II MHC.

The target in assay [15] is T12, HLA-DR3 (DRB1*0301), purified from cell line MAT (human).
T12 chain 1: not shown
T12 chain 2: not shown
Briefly: competition vs 125I-peptide, purified class II MHC.

Assay [16] addresses T13, mouse class II IA^k, purified from CH12 cells (mouse), P01910.
T13 chain 1: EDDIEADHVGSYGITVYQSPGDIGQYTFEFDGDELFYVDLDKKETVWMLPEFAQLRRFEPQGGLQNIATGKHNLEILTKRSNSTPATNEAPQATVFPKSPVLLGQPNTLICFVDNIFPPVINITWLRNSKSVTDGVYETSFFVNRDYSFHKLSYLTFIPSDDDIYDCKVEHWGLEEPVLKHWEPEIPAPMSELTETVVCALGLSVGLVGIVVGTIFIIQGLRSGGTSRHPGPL
T13 chain 2: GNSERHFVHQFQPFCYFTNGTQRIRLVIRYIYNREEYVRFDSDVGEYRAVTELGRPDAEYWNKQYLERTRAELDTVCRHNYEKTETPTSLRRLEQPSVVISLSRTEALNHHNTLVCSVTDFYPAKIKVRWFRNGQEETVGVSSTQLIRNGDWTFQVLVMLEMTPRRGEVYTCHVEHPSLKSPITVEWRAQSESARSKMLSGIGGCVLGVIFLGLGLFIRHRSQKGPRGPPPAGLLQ
Briefly: assay standard, average IC50.

The target in assay [17] is mouse class II IE^d, purified from A20 cells (mouse). Briefly: assay standard, average IC50.
Assay [18] addresses T13, mouse class II IA^k, purified from CH12 …. Nature of the assay: 125I-peptide inhibition, purified class II.
The target in assay [19] is T14, HLA-DR2w2a (DRB5*0101), purified from transfected fibroblasts L416.3 (human).
T14 chain 1: not shown
T14 chain 2: not shown
Briefly: competition vs 125I-peptide, purified class II MHC.

The target of assay [20] is T15, HLA-DR4w4 (DRB1*0401), purified from cell line PREISS (human).
T15 chain 1: not shown
T15 chain 2: not shown
Nature of the assay: competition vs 125I-peptide, purified class II MHC.

Assay [21] addresses mouse class II IA^s, purified from LS102.9 cells (mouse). Briefly: 125I-peptide inhibition, purified class II.
For assay [22], the target named is T6, mouse class II IA^d, purified from A20 …. Nature of the assay: assay standard, average IC50.
Assay [23] deals with T16, HLA-DR5 (DRB1*11011), purified from SWEIG cells (human).
T16 chain 1: not shown
T16 chain 2: not shown
Nature of the assay: 125I-peptide inhibition, purified class II.

B1: 906.09 (peptide)
peptide: [dA]A[Cha]VAAATLKAA[dA]
In the case of B1, the IC50 came to 14 nM in assay [1]; 31 nM in assay [2]; 588 nM in assay [3]; 93 nM in [4]; 31 nM in assay [5]; 0.61 nM in assay [6]. The IC50 was found to be 280 nM in assay [7]; 11 nM in [8]; 38 nM in assay [9]; 2 nM in [10]; 2.6 nM in assay [11]; 76 nM in assay [12].

B2: peptide 965.021, aK(14)…a-NH2 (peptide)
peptide: [dA]K[14]VKAWTLKAA[dA]-NH2
modifications: reading uncertain; also: printed as aK(14)VKAWTLKAAa-NH2
As to B2, the IC50 was found to be 4.1 nM in [13], 89.3 nM in [14] and 1100 nM in assay [15].

B3: HEL 46-61 (assay standard, with N-terminal Y) (peptide)
chain: YNTDGSTDYGILQINSR
modifications: not checked
In turn, B3 gave an IC50 in assay [16] of 20 nM.

B4: lambda rep 12-26 (peptide)
peptide: YLEDARRLKAIYEKKK
modifications: not checked
Take B4: the IC50 in [17] was 170 nM; in assay [18], > 10000 nM; in assay [2], > 10000 nM; in assay [5], 170 nM; in assay [9], 1100 nM.

B5: peptide 955.15 (as printed), aK(14)…a-NH2 (peptide)
peptide: [dA]K[14]VAAHTLKAA[dA]-NH2
modifications: reading uncertain; also: printed as aK(14)VAAHTLKAAa-NH2
In the case of B5, the IC50 in assay [13] is 29.9 nM; in assay [19], 5.4 nM; in [15] it was 2500 nM; in assay [20] it was 3.2 nM.

B6: PLP 139-151 (peptide)
peptide: HSLGKWLGHPDKF
modifications: not checked
Molecule B6 registered an IC50 in assay [21] of 86 nM.

B7: Ova 323-336 (peptide)
peptide: ISQAVHAAHAEINE
modifications: not checked
Regarding B7, the half-maximal inhibitory concentration (IC50) in assay [22] is 110 nM; in [18], 1000 nM; in assay [8], 700 nM; in [9], 110 nM.

B8: 906.11 (peptide)
peptide: [dA]A[Cha]IAAATLKAA[dA]
As for B8, the IC50 in assay [21] amounted to 98 nM; in assay [4] it was 41 nM; in assay [5], 13 nM; in [6], 0.38 nM; in assay [7] it was 100 nM; in [8], 14 nM. The IC50 in assay [10] was 1.3 nM; in assay [23] it was 2.4 nM; in assay [12], 31 nM.

B9: 760.57 (peptide)
peptide: [dA]A[Cha]AAAATLKAA[dA]
Take B9: the IC50 in assay [18] turned out to be 5260 nM; in [21], 120 nM; in [4], 3300 nM; in [6], 4.5 nM; in assay [8], 78 nM; in [11] it was 2 nM. In assay [12], this molecule returned an IC50 of 78 nM.

B10: peptide 965.052, aK(14)…a-NH2 (peptide)
peptide: [dA]K[14]VYAWTLKAA[dA]-NH2
modifications: reading uncertain; also: printed as aK(14)VYAWTLKAAa-NH2
Regarding B10, the IC50 in [13] is 6.9 nM; in assay [14], 25.5 nM; in [20], 0.8 nM.

B11: peptide 965.051, aK(14)…a-NH2 (peptide)
peptide: [dA]K[14]VYAWTLKAA[dA]-NH2
modifications: reading uncertain; also: printed as aK(14)VYAWTLKAAa-NH2
B11: the IC50 in assay [13] was found to be 5.7 nM; in [14], 833 nM; in assay [20], 0.3 nM.

B12: HEL46-61 (peptide)
peptide: NTDGSTDYGILQINSR
modifications: not checked
For B12, the results for the IC50 in assay [18], in assay [2] and in assay [5] were 20 nM, 7000 nM and 8500 nM, respectively.
